From the supplement of paper PMC9112550, “Optimization of the antimicrobial peptide Bac7 by deep mutational scanning” (BMC Biology, 2022) come the findings set out here.
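Further: peptides expressed intracellularly from a pBAD plasmid library in pooled LB shake-flask culture, induced with 0.3% L-arabinose, DNA abundance read by NGS, three biological replicates, DESeq2 with apeglm shrinkage.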

The test system of this data set is Escherichia coli TOP10. The data set can be described thus: shrunken log2 fold change of peptide-encoding DNA abundance (4.5 h post-induction vs induction); higher = less antimicrobial activity (less host growth inhibition). Conditions: time post-induction: 4.5 h; library: site-saturation at positions 5, 18, 19, 20.
Turning to RRIRNRPPRLPRPRPRPKGAPRP, the “shrunken log2 fold change” value stood at 0.476.
The figure for RRIRARPPRLPRPRPRPWWGPRP is 3.62; for RRIRVRPPRLPRPRPRPMKNPRP it is -0.104; for RRIRMRPPRLPRPRPRPVAAPRP it is 2.1.
Then RRIRCRPPRLPRPRPRPGLFPRP, with 0.154.
The figure for RRIRARPPRLPRPRPRPGTTPRP is 0.143; for RRIRPRPPRLPRPRPRPLCHPRP it is -0.139; for RRIRYRPPRLPRPRPRPEFVPRP it is -0.327.
As to RRIRGRPPRLPRPRPRPAKKPRP, the “shrunken log2 fold change” value was determined as 0.00559.
The figure for RRIRDRPPRLPRPRPRPFWWPRP is 0.641; for RRIRFRPPRLPRPRPRPVIYPRP it is -0.588; for RRIRQRPPRLPRPRPRPRDMPRP it is -0.046.
The figure for RRIRHRPPRLPRPRPRPSILPRP is -0.464.
For RRIRLRPPRLPRPRPRPWVNPRP, the “shrunken log2 fold change” value is -0.271.
The figure for RRIRLRPPRLPRPRPRPACHPRP is 0.186; for RRIRKRPPRLPRPRPRPDNGPRP it is -0.0558; for RRIRRRPPRLPRPRPRPVMGPRP it is 0.0569.
Then RRIRERPPRLPRPRPRPGCSPRP, with -0.0673; and RRIRPRPPRLPRPRPRPDCWPRP, with 0.543; and RRIRIRPPRLPRPRPRPRDPPRP, with 1.94.
Then RRIRIRPPRLPRPRPRPATFPRP, with -0.658.
As for RRIRHRPPRLPRPRPRPPSFPRP, the “shrunken log2 fold change” value was -0.234.
On to RRIRLRPPRLPRPRPRPWMVPRP, for which the “shrunken log2 fold change” value was -0.263.
The figure for RRIRLRPPRLPRPRPRPQDRPRP is 0.128; for RRIRARPPRLPRPRPRPIYPPRP it is -0.387.
Then RRIRVRPPRLPRPRPRPYETPRP, with 0.0231; and RRIRIRPPRLPRPRPRPAPKPRP, with 0.187.
For RRIRARPPRLPRPRPRPLHAPRP, the “shrunken log2 fold change” value is 0.554.
The figure for RRIRARPPRLPRPRPRPQGEPRP is 0.294; for RRIRGRPPRLPRPRPRPCFQPRP it is 0.106.
Then RRIRQRPPRLPRPRPRPICWPRP, with 0.0153; and RRIRQRPPRLPRPRPRPVTSPRP, with -0.0277; and RRIRIRPPRLPRPRPRPNTSPRP, with -0.639.
The figure for RRIRERPPRLPRPRPRPKNCPRP is -0.0945.
With RRIRMRPPRLPRPRPRPDYQPRP, the “shrunken log2 fold change” value was -0.304.
The figure for RRIRCRPPRLPRPRPRPPVAPRP is 0.443.
Then RRIRPRPPRLPRPRPRPINWPRP, with -0.241; and RRIRHRPPRLPRPRPRPAYPPRP, with -0.37.
Then RRIRFRPPRLPRPRPRPATIPRP, with -0.506; and RRIRTRPPRLPRPRPRPYDAPRP, with 0.0888; and RRIRLRPPRLPRPRPRPCVYPRP, with -0.352.
RRIRHRPPRLPRPRPRPKRKPRP: the “shrunken log2 fold change” value was determined as 0.0863.
Then RRIRNRPPRLPRPRPRPHVYPRP, with -0.229; and RRIRTRPPRLPRPRPRPGWIPRP, with -0.154; and RRIRPRPPRLPRPRPRPYDFPRP, with -0.194.
Take RRIRARPPRLPRPRPRPLRYPRP: the “shrunken log2 fold change” value was -0.00438.
On to RRIRPRPPRLPRPRPRPTWLPRP, for which the “shrunken log2 fold change” value amounted to 0.522.
The figure for RRIRCRPPRLPRPRPRPDANPRP is -0.00199; for RRIRIRPPRLPRPRPRPQHMPRP it is -0.94.
Then RRIRLRPPRLPRPRPRPARVPRP, with 0.329.
